# According to patent publication US20250296971A1, “GASTRIC INHIBITORY PEPTIDE RECEPTOR LIGANDS” (priority 2021, published 2025):
# *1 amine or outer side, *2 acyl side, *3 side chain or, on linkers, in order; H or OH if unused. Bridges are numbered along the chain shown (N, C = ends). Primed or numbered codes have the meaning given here. [ ]: non-standard residue; d: D form. The star is where a group is joined. Ttds = 1,13-diamino-4,7,10-trioxatridecan-succinamic acid, NCCCOCCOCCOCCCNC(=O)CCC(=O)*; APAc″ = 4-amino-1-carboxymethylpiperidine, NC1CCN(CC(=O)*)CC1; DOTA = O=C(O)CN1CCN(CC(=O)O)CCN(CC(=O)*)CCN(CC(=O)O)CC1; 2Lut = 2,6-lutidylidene bridge between two thiols; Trp(5-Cl) = N[C@@H](Cc1c[nH]c2ccc(Cl)cc12)C(=O)O; Phe(3,4-Cl2) = N[C@@H](Cc1ccc(Cl)c(Cl)c1)C(=O)O; Pyridine(2,6-diCH2) = c1cc(C[*:1])nc(C[*:2])c1; Trp(6-F) = N[C@@H](Cc1c[nH]c2cc(F)ccc12)C(=O)O; APAc = 4-amino-1-carboxymethylpiperidine; Oic = O=C(O)[C@@H]1C[C@@H]2CCCC[C@@H]2N1; MeO10kDaPEGAc = polydisperse 10 kDa PEG; Pro(4S-NH2) = N[C@@H]1CN[C@H](C(=O)O)C1; mXylylene = c1cc(C[*:1])cc(C[*:2])c1; Hyp = O=C(O)[C@@H]1C[C@@H](O)CN1; Cysteamide = C(CS[*:3])N[*:1]; Suc = O=C(CCC(=O)[*:2])[*:1]; hLys = NCCCCC[C@H](N)C(=O)O; Api = NC1(C(=O)O)CCNCC1; Thp = NC1(C(=O)O)CCOCC1; Aib = CC(C)(N)C(=O)O; Sar = CNCC(=O)O
# B1: DOTA-Ttds-Asp-6Fw-Trp-Pro-Glu-leu-[Cys(3MeBn)-Aib-Leu-Ile-AET] (peptide)
# peptide: {DOTA-Ttds}-D[Trp(6-F)]WPE[dL]C[Aib]LI[Cysteamide]
# modifications: linker 7-11 via mXylylene
# B2: Ac-Asp-Eaa-Eaa-Hyp-Glu-leu-[Cys(2Lut)-Thp-Leu-Ile-Cys]-NH2 (peptide)
# peptide: Ac-D[Phe(3,4-Cl2)][Phe(3,4-Cl2)][Hyp]E[dL]C[Thp]LIC-NH2
# modifications: linker 7-11 via Pyridine(2,6-diCH2)
# SMILES: CC[C@H](C)[C@@H]1NC(=O)[C@H](CC(C)C)NC(=O)C2(CCOCC2)NC(=O)[C@@H](NC(=O)[C@@H](CC(C)C)NC(=O)[C@H](CCC(=O)O)NC(=O)[C@@H]2C[C@@H](O)CN2C(=O)[C@H](Cc2ccc(Cl)c(Cl)c2)NC(=O)[C@H](Cc2ccc(Cl)c(Cl)c2)NC(=O)[C@H](CC(=O)O)NC(C)=O)CSCc2cccc(n2)CSC[C@@H](C(N)=O)NC1=O
# B3: Ac-Asp-Eaa-Eaa-Nmg-Glu-leu-[Cys(2Lut)-Thp-Leu-Ile-Cys]-NH2 (peptide)
# peptide: Ac-D[Phe(3,4-Cl2)][Phe(3,4-Cl2)][Sar]E[dL]C[Thp]LIC-NH2
# modifications: linker 7-11 via Pyridine(2,6-diCH2)
# SMILES: CC[C@H](C)[C@@H]1NC(=O)[C@H](CC(C)C)NC(=O)C2(CCOCC2)NC(=O)[C@@H](NC(=O)[C@@H](CC(C)C)NC(=O)[C@H](CCC(=O)O)NC(=O)CN(C)C(=O)[C@H](Cc2ccc(Cl)c(Cl)c2)NC(=O)[C@H](Cc2ccc(Cl)c(Cl)c2)NC(=O)[C@H](CC(=O)O)NC(C)=O)CSCc2cccc(n2)CSC[C@@H](C(N)=O)NC1=O
# B4: DOTA-Ttds-Asp-Trp-5Clw-4Ap(Ac)-Glu-leu-[Cys(3MeBn)-Aib-Leu-Ile-AET] (peptide)
# peptide: {DOTA-Ttds}-DW[Trp(5-Cl)][Pro(4S-NH2)](Ac)E[dL]C[Aib]LI[Cysteamide]
# modifications: linker 7-11 via mXylylene
# B5: Ac-Asp-Eaa-Eaa-Oic-Glu-leu-[Cys(2Lut)-Thp-Leu-Ile-Cys]-NH2 (peptide)
# peptide: Ac-D[Phe(3,4-Cl2)][Phe(3,4-Cl2)][Oic]E[dL]C[Thp]LIC-NH2
# modifications: linker 7-11 via Pyridine(2,6-diCH2)
# SMILES: CC[C@H](C)[C@@H]1NC(=O)[C@H](CC(C)C)NC(=O)C2(CCOCC2)NC(=O)[C@@H](NC(=O)[C@@H](CC(C)C)NC(=O)[C@H](CCC(=O)O)NC(=O)[C@@H]2C[C@@H]3CCCC[C@@H]3N2C(=O)[C@H](Cc2ccc(Cl)c(Cl)c2)NC(=O)[C@H](Cc2ccc(Cl)c(Cl)c2)NC(=O)[C@H](CC(=O)O)NC(C)=O)CSCc2cccc(n2)CSC[C@@H](C(N)=O)NC1=O
# B6: DOTA-APAc-Asp-Gly-5Clw-Hyp-Glu-leu-[Cys(2Lut)-Thp-Leu-Ile-AET] (peptide)
# peptide: {DOTA-APAc″}-DG[Trp(5-Cl)][Hyp]E[dL]C[Thp]LI[Cysteamide]
# modifications: linker (positions not given here) via Pyridine(2,6-diCH2); not fully specified (bridges); printed as DOTA-APAc-Asp-Gly-5Clw-Hyp-Glu-leu-[Cys(2Lut)-Thp-Leu-Ile-AET]
# B7: Ac-Asp-Trp-5Clw-Hyp-Glu-leu-[Cys(2Lut)-Thp-Leu-Ser-Cys]-NH2 (peptide)
# peptide: Ac-DW[Trp(5-Cl)][Hyp]E[dL]C[Thp]LSC-NH2
# modifications: linker 7-11 via Pyridine(2,6-diCH2)
# SMILES: CC(=O)N[C@@H](CC(=O)O)C(=O)N[C@@H](Cc1c[nH]c2ccccc12)C(=O)N[C@@H](Cc1c[nH]c2ccc(Cl)cc12)C(=O)N1C[C@H](O)C[C@H]1C(=O)N[C@@H](CCC(=O)O)C(=O)N[C@H](CC(C)C)C(=O)N[C@H]1CSCc2cccc(n2)CSC[C@@H](C(N)=O)NC(=O)[C@H](CO)NC(=O)[C@H](CC(C)C)NC(=O)C2(CCOCC2)NC1=O
# B8: Ac-Asp-Trp-5Clw-Hyp-Lys-leu-[Cys(2Lut)-Thp-Leu-Ile-Cys]-NH2 (peptide)
# peptide: Ac-DW[Trp(5-Cl)][Hyp]K[dL]C[Thp]LIC-NH2
# modifications: linker 7-11 via Pyridine(2,6-diCH2)
# SMILES: CC[C@H](C)[C@@H]1NC(=O)[C@H](CC(C)C)NC(=O)C2(CCOCC2)NC(=O)[C@@H](NC(=O)[C@@H](CC(C)C)NC(=O)[C@H](CCCCN)NC(=O)[C@@H]2C[C@@H](O)CN2C(=O)[C@H](Cc2c[nH]c3ccc(Cl)cc23)NC(=O)[C@H](Cc2c[nH]c3ccccc23)NC(=O)[C@H](CC(=O)O)NC(C)=O)CSCc2cccc(n2)CSC[C@@H](C(N)=O)NC1=O
# B9: Ac-Asp-Trp-5Clw-Hyp-Hly-leu-[Cys(2Lut)-Thp-Leu-Ile-Cys]-NH2 (peptide)
# peptide: Ac-DW[Trp(5-Cl)][Hyp][hLys][dL]C[Thp]LIC-NH2
# modifications: linker 7-11 via Pyridine(2,6-diCH2)
# SMILES: CC[C@H](C)[C@@H]1NC(=O)[C@H](CC(C)C)NC(=O)C2(CCOCC2)NC(=O)[C@@H](NC(=O)[C@@H](CC(C)C)NC(=O)[C@H](CCCCCN)NC(=O)[C@@H]2C[C@@H](O)CN2C(=O)[C@H](Cc2c[nH]c3ccc(Cl)cc23)NC(=O)[C@H](Cc2c[nH]c3ccccc23)NC(=O)[C@H](CC(=O)O)NC(C)=O)CSCc2cccc(n2)CSC[C@@H](C(N)=O)NC1=O
# B10: HO-Succinyl-Trp-5Clw-Hyp-Glu-leu-[Cys(2Lut)-Apc(MeO10kDaPEGAc)-Leu-Ile-Cys]-APAc-Lys(DOTA)-NH2 (peptide)
# peptide: Suc-W[Trp(5-Cl)][Hyp]E[dL]C[Api](MeO10kDaPEGAc)LIC-{APAc-Lys(DOTA)-NH2}
# modifications: linker 6-10 via 2Lut
# Experiments:
# [1] = molecular target: human Gastric Inhibitory Peptide Receptor (GIPR) (human) (UniProt P48546); assay: FACS competition vs biotinylated GIP-057 on CHO-K1-hGIPR cells; category C: pIC50 6.1-7.0
# human Gastric Inhibitory Peptide Receptor (GIPR) (human), sequence (P48546 22-466 limits assumed): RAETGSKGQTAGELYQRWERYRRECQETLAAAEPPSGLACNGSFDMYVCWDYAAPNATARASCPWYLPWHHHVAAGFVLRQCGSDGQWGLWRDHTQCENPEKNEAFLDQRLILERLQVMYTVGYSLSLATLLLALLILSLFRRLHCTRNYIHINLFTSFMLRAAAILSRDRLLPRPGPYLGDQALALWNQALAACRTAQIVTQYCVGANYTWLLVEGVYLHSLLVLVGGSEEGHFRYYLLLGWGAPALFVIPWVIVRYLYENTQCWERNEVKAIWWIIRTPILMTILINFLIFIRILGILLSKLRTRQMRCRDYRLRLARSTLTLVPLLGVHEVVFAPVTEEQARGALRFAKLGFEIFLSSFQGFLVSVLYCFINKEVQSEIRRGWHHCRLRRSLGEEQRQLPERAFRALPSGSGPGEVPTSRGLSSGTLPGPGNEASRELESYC
# [2] = molecular target: human Gastric Inhibitory Peptide Receptor (GIPR) (human) (UniProt P48546); assay: FACS competition vs biotinylated GIP-057 on CHO-K1-hGIPR cells; category D: pIC50 <=6.0
# [3] = molecular target: biotinylated extracellular domain of the human GIP receptor (bioGIPR) (human) (UniProt P48546); assay: SPR single cycle kinetics, bioGIPR captured on chip; category A: t1/2 >15 min
# biotinylated extracellular domain of the human GIP receptor (bioGIPR) (human), sequence (P48546 24-138 limits assumed): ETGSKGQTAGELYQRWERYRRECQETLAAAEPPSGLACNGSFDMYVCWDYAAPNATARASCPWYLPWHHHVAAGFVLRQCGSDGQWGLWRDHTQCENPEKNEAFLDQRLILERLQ
# [4] = molecular target: biotinylated extracellular domain of the human GIP receptor (bioGIPR) (human) (UniProt P48546); assay: SPR single cycle kinetics, bioGIPR captured on chip; category B: pKD 8.1-9.0
# [5] = molecular target: human Gastric Inhibitory Peptide Receptor (human) (UniProt P48546); assay: FACS competition with GIP-057 on CHO-K1-hGIPR cells; pIC50 category A: >8.0
# human Gastric Inhibitory Peptide Receptor (human), sequence (P48546 22-466 limits assumed): as the sequence (P48546 22-466 limits assumed) above
# [6] = molecular target: human Gastric Inhibitory Peptide Receptor (GIPR) (human) (UniProt P48546); assay: FACS competition vs biotinylated GIP-057 on CHO-K1-hGIPR cells; category A: pIC50 >8.0
# [7] = molecular target: human Gastric Inhibitory Peptide Receptor (human) (UniProt P48546); assay: FACS competition with GIP-057 on CHO-K1-hGIPR cells; pIC50 category B: 7.1-8.0
Binder,pIC50 [1] [pic50],t1/2 [3] [min],pKD [4] [pkd],other results
B1,6.1 to 7,,,
B2,6.1 to 7,,,
B3,,,,pIC50 [2]: < 6 pic50
B4,,> 15,8.1 to 9,pIC50 [5]: > 8 pic50
B5,,,,pIC50 [2]: < 6 pic50
B6,6.1 to 7,,,
B7,6.1 to 7,,,
B8,,> 15,8.1 to 9,pIC50 [6]: > 8 pic50
B9,,> 15,8.1 to 9,pIC50 [6]: > 8 pic50
B10,,> 15,8.1 to 9,pIC50 [7]: 7.1 to 8 pic50
